Experimental data from the supplement of paper PMC9170038.

Test system: MS2 coat protein
Assay: apparent KD of MS2 coat protein; designed switch direction (-1 OFF switch, 1 ON switch): 1; higher = weaker reporter binding
Procedure, shortened: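 Apparent KD, taken as the median over clusters for each design, was obtained by curve-fitting normalised cluster fluorescence. Designed RNA switches had been transcribed on Illumina chips by stalled E. coli RNA polymerase and titrated with SNAP-549-labelled MS2 coat protein, doubling from 0.7 or 1.5 nM to 3 µM.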

[1] = input ligand: microRNA oligo, concentration not stated
[2] = Eterna round: R95, input ligand: FMN 200 uM
[3] = Eterna round: R95, input ligand: microRNA oligo, concentration not stated
[4] = Eterna round: R95, input ligand: none

Sequence	apparent KD of MS2 coat protein (input ligand: FMN 200 uM) [nM]	apparent KD of MS2 coat protein [1] [nM]	apparent KD of MS2 coat protein (input ligand: none) [nM]	apparent KD of MS2 coat protein [2] [nM]	apparent KD of MS2 coat protein [3] [nM]	apparent KD of MS2 coat protein [4] [nM]
AUACCAUCGGGAGGAUAUGGCACCUUAUUGGUGCCAGAAGGUCCAACAUGAGGAUCACCCAUGUGGGAGUGGUCUAAUGACCAC [Fiskers NG1ss - 28] (Eterna round: R96, puzzle: Same State NG 1)	121	120	171			
AUACAUGAGGAUCACCCAUGUAAUUAAUUAAUUAAUAAGAUCUAGGAUAUCAGCUCGAUUAGAGCUGAGAAGGAGAUCACAUGU [SSNG3/21-B2] (Eterna round: R96, puzzle: Same State NG 3)		16.8				
AUGGUCAAGUGUGAGGAUAUCCAUGCUCCCACAUGAGGAUCACCCAUGUCUUAAAGGGCGUAAAGGGAGAAGGUACGAACGCCAC [Edatxein] (Eterna round: R96, puzzle: Same State 2)	73.1	49.2	80.6			
CUUUUUAGUGCAGGAUAUGAUCAACAUGAGGAUCACCCAUGUGGCGUUGUGAGUAGGGAGAGAGAUCAGAAGGGCGUCUCCGCG [SS-NG2-LRO12] (Eterna round: R96, puzzle: Same State NG 2)	46.4	62.3	42.2			
CCGAGUGGCGUACAGGAUAUGUUGCGUGGAACAUGAGGAUCACCCAUGUAUUUGCUCCUGCAUACGCAGAAGGGUGCGUCCUGGG [Estedibe] (Eterna round: R96, puzzle: Same State 2)	16	24.1	29.3			
AGAGGAGGAGCAGGAUAUGCGAAGAAGAACGUGGCAGAAGGGUUCAUGCGAUGACAUGAGGAUCACCCAUGUACCGCGCGAGGA [AK SSNG1-V2-10] (Eterna round: R96, puzzle: Same State NG 1)	64.4	33.9	62.6			
GAUAUACAUGAGGAUCACCCAUGUCAUAUGACAUGAGGAUAUGUACAGACUUCGGUCUGUACAGAAGGCAUGUGUC [SS1 - 1011 Omei Mod 1] (puzzle: Same State 1)				60.5	338	530
GCUUGACAUGAGGAUCACCCAUGUCAUGCGGACACAGGAUAUCGUGGCCUGAAGCCGUCAUGAGAAGGGUGACCAA [Bibiedce] (puzzle: Same State 1)				28.3	17.3	17.6
AGCACGAUUCGAGGAUAUGAGUCACAUGAGGAUCACCCAUGUCUAAUGGAUGGGACGGCCCAACCUCAGAAGGCGAUACCGGCA [Eternabot solution 24] (Eterna round: R96, puzzle: Same State NG 2)	392	307	338			
GGAGCCAAGGCAGGAUAUUCAUAUUAUAAACAUGAGGAUCACCCAUGUAGGGCCAGAAGGCCUUGGGAGAAGGGCCAUGGCUCG [Xeonanis - 13 mod16] (Eterna round: R96, puzzle: Same State NG 2)	20.2	53.8	71			
CAUCGUUUGAUAGGAUAUCGCUAUACAUGAGGAUCACCCAUGUUUACCACGCUGGUUUUUCAUACCGAGAAGGAUUCUGAUGAU [salish99_SSNG02_r04_013] (Eterna round: R96, puzzle: Same State NG 2)	29.6	27.8	32.5			
GCCGCAAGGGCAGGAUAUGGGUCCAGAACGCAAAUGCGCUCUGGUACAUGAGGAUCACCCAUGUCCCAGAAGGGCCCAAGCGGC [Isusara] (Eterna round: R96, puzzle: Same State NG 2)	16.5	96.5	106			
UCUUGGUUUUUGCUCGUUUUUUGUGUUGAACAUGAGGAUCACCCAUGUAUUGUACGGUCCGGUUUAGUAGUGGUCCA [JMF 44] (Eterna round: R96, puzzle: Sensor for hsa-mir-208a)	181	81.8	173			
ACAUGAAAGGCAGGAUAUUUUGUACCUACAUGUGACAUGAGGAUCACCCAUGUGGUAAGUAUAAGAGAGAAGGGUCAGAUAUGU [Equivalence 2 - Jieux - Same State NG 2] (Eterna round: R96, puzzle: Same State NG 2)	28.9	31.7	37.2			
GGAGCCGGCACGGAGGAUAUUCAUAUUAAAACAUGAGGAUCACCCAUGUAGGCCAGAAGGCCUUGGGAGAAGGCCGAUCGGCUCG [Xeonanis - 15] (puzzle: Same State 2)				21.9	306	409
AUAAGGCAAGCUUUUUUCUCGUAAUGUAAACAUGAGGAUCACCCAUGUGCCCAUCCUGGAUCUUUGGAUCGCAGAAC [Usbexe] (puzzle: Sensor for hsa-mir-208a)				34.6	25.9	40.7

Sequence	apparent KD of MS2 coat protein (input ligand: FMN 200 uM) [nM]	apparent KD of MS2 coat protein [1] [nM]	apparent KD of MS2 coat protein (input ligand: none) [nM]	apparent KD of MS2 coat protein [2] [nM]	apparent KD of MS2 coat protein [3] [nM]	apparent KD of MS2 coat protein [4] [nM]
CGGAGACGUCAAGGAUAUGCUACCGUUUCGGUAGCAGAAGGUGAUCACAUGAGGAUCACCCAUGUAUGCAUGCGUGAGCGUGCU [JL SSNG1 3.51] (Eterna round: R96, puzzle: Same State NG 1)	125	99.2	21.1			
UGGAUCUAGGCUUGCCUGGGUCCAUGUUGACAUGAGGAUCACCCAUGUGUAUUUUUUUAGCUUUUUGUUUGUCAACU [JL A Humble Attempt mod 10] (puzzle: Sensor for hsa-mir-208a)				26.2	13	25.5
GUAAAACAUGAGGAUCACCCAUGUCAUCUAAGUCGAGGAUAUGGGAAUUAAUUAAUUAAUCCAGAAGGCGAAAAUG [Mat - Same State 1 - D94] (puzzle: Same State 1)				41.1	58.1	110
UUGAAGAAUUAAGGAUAUCGAGUCGUCAAAUUAAACAUGAGGAUCACCCAUGUGGGUUGUGGUAUCGAGAAGGUAAAUUACUAA [JR_SSNG2_Sub100] (Eterna round: R96, puzzle: Same State NG 2)	57.1	66.4	84.7			
UAAGUAUGUUGAGGAUAUUAUGUUUGGUGAGAUGACAUGAGGAUCACCCAUGUGUUAUCAGUUCUUAAGAAGGCAACAUACUUA [JR_SSNG2_Sub092] (Eterna round: R96, puzzle: Same State NG 2)		20				
UGAAUAGUUACAGGAUAUCAUGCGAAAAUUGCGUGAGAAGGGUGGGUGUUGUGCUCAAAGUGCUACAUGAGGAUCACCCAUGUU [SameState NG1 #40] (Eterna round: R96, puzzle: Same State NG 1)	1720	99.3	497			
GUAAGUUUGAUGCUCGUCUCUCCGUACAGACAUGAGGAUCACCCAUGUAGUCGGGAAGUAGCCCGGCCAGUAUGGCC [Zaorve] (puzzle: Sensor for hsa-mir-208a)				18.1	22.2	17.7
CCAUAGUACAAUUUAGAUCUACAUGAGGAUCACCCAUGUACUGAGGAUAUCAGCUCGUUUAGAGCUGAGAAGGCAGAAUUAAUU [SSNG3/5-A3] (Eterna round: R96, puzzle: Same State NG 3)	57.1	116	112			
CCGGCAAGUAUAGGAUAUCCCGCAACAGAAGCGGGAGAAGGGUGCCAAACAUGAGGAUCACCCAUGUACACCGGAAAUAAAUAA [Veaat] (Eterna round: R96, puzzle: Same State NG 1)	92.9	46.6	30.5			
GUGGUCAGACAUGAGGAUCACCCAUGUGGAAUAAAUAAGGAGAAGGAUAUGGAAUAUAGGAUAUACCAGAAGGUCUGGUUGGUG (Eterna round: R96, puzzle: Same State NG 3)		55.8				
GGUUUAGUCAAGUGCCGUUGCACUUGAAAACAUGAGGAUCACCCAUGUUCGGGACAAGCUUUGCUCCUCGUCUUUCC [Geisedor] (puzzle: Sensor for hsa-mir-208a)				255	50.2	389
UUGCGGGCUUGAGGAUAUUGAGUACAUAUGUUUAACAUGAGGAUCACCCAUGUGGGUUGCGGUAUCGAGAAGGUAACUUCCUAC [salish99_SSNG2_r04_808] (Eterna round: R96, puzzle: Same State NG 2)	169	92.5	153			
AACAUUCUAUCUCAGGAUAUCAUGUCAAAGACAUGAGGAUCACCCAUGUACCAGGAAACUGGUUAUGAGAAGGGAGAUAGAAUGA [Mat - Same State 2 - Mod - D45] (puzzle: Same State 2)				114	89.4	162
ACCAAUCCAAUAAAACAAGCGUGCUCGUCACAUGAGGAUCACCCAUGUUUAAGCGCUGUUCCUAAUUCCUCAGCGCC [Isoreder] (puzzle: Sensor for hsa-mir-208a)				182	28.8	168
UGACACACGGCAGGAUAUGCUUAGCAAAGCUAAGCAGAAGGGCCUCAUGUCGUGGAAAUGUGACAUGAGGAUCACCCAUGUUGC [Omei SS(NG)1 Cv6] (Eterna round: R96, puzzle: Same State NG 1)	39.3	20.7	92.2			
AUAUAACAUGAGGAUCACCCAUGUCACUAAAGUCGAGGAUAUGGGCAGGUUAUAUCCGAACCAGAAGGCGAAUUAU [SS1 Teenbexe 6] (puzzle: Same State 1)					163	
